The text below walks through data of paper PMC4931921.

In data set [1] the target is T1, IFIT5 (Homo sapiens, UniProt Q13325 1-482).
T1 sequence: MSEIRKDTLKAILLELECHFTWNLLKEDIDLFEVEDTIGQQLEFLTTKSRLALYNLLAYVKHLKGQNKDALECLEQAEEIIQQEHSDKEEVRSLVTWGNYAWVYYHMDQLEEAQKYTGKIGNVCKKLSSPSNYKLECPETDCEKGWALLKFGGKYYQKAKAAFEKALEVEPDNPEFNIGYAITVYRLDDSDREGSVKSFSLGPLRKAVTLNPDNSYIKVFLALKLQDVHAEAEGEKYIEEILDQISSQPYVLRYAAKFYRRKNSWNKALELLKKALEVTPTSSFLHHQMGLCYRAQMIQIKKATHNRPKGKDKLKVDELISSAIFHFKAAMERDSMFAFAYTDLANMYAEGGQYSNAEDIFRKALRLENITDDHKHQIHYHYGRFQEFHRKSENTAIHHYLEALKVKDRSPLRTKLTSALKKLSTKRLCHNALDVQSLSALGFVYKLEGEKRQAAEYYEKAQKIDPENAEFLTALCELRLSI
Briefly: crystal structure 2.0 A.

The target in data set [2] is T1, IFIT5. Briefly: crystal structure 1.86 A.
Data set [3] deals with T1, IFIT5. Description: crystal structure 2.5 A.
The target in the next data set is T2, IFIT3 (Homo sapiens, UniProt O14879 1-490).
T2 sequence: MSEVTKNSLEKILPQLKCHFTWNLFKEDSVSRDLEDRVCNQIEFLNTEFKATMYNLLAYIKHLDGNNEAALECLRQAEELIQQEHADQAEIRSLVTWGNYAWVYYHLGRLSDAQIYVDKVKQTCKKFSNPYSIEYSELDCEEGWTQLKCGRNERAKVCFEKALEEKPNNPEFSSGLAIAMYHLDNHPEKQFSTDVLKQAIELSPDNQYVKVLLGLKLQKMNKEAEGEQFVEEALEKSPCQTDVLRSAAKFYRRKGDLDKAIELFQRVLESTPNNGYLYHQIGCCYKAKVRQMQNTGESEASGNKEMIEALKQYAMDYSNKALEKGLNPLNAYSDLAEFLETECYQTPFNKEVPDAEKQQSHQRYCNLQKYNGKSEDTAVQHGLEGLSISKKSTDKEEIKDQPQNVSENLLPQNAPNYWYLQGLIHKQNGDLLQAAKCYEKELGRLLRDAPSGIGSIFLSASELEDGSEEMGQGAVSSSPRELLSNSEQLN
Briefly: EMSA.

Data set [4] addresses T1, IFIT5. Briefly: EMSA. For orientation: A gel shift assay detects complexes by their altered migration in electrophoresis.
The next data set addresses T3, IFIT1 (Homo sapiens, UniProt P09914 1-478).
T3 sequence: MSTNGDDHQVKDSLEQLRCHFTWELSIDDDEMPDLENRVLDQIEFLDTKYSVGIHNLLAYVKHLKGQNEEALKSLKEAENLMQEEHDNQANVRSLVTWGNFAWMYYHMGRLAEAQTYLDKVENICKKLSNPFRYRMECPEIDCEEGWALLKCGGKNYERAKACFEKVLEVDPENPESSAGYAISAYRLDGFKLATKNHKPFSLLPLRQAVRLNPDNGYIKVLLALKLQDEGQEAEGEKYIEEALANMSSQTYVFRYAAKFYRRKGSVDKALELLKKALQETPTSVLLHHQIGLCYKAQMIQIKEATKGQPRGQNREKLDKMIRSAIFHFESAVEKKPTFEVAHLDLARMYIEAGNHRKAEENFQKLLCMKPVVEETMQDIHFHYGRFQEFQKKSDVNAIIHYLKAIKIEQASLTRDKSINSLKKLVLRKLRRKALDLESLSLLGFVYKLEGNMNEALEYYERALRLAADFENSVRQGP
Briefly: EMSA.

UUU (ssRNA, 5'-triphosphate) [PPP-oligo-U]: the binding result in the data set with IFIT5 [1] is “binds”.

As to CCCC (ssRNA, 5'-triphosphate) [PPP-oligo-C], the binding result with IFIT5 [2] is reported as “binds”.

Take AAAA (ssRNA, 5'-triphosphate) [PPP-oligo-A]: in the data set with IFIT5 [3], the binding result is on record as “binds”.

B1: PPP-3nt (dsRNA)
RNA 1: GGGAGAGAGAGAGAGAGAGUAAGGGCGUCGUCGCCCCGAGAAUU
RNA 2: ACUCUCUCUCUCUCUCU
modifications: 5'-triphosphate on strand 1
As to B1, the binding result with IFIT3 was “no binding”; in the data set with IFIT5 [4] it was “binds”.

For the molecule GGGAGAGAGAGAGAGAGAGUAAGGGCGUCGUCGCCCCGAGAAUU (ssRNA, 5'-triphosphate) [PPP-ss (44nt PPP-ssRNA)], the binding result in the data set with IFIT3 was “no binding”; in the data set with IFIT5 [4] it was “binds”; with IFIT1, “binds”.

B2: PPP-5nt (dsRNA)
RNA 1: B1 RNA 1
RNA 2: ACUCUCUCUCUCUCU
modifications: 5'-triphosphate on strand 1
As to B2, the binding result in the data set with IFIT1 is “binds”.
